# In US20080160018A1:
# B1: CDR-only humanized anti-Tac antibody (antibody, V domains shown)
# VH: QVQLVQSGAEVKKPGSSVKVSCKASGGTFSSYRMHWVRQAPGQGLEWMGYINPSTGYTEYNQKFKDRVTITADESTNTAYMELSSLRSEDTAFYFCAGGGGVFDYEYNGGLVTVSS
# VL: DIQMTQSPSTLSASVGDRVTITCSASSSISYMHWYQQKPGKAPKLLMYTTSNLASGVPSRFIGSGSGTEFTLTISSLQPDDFATYYCHQRSTYPLTFGQGTKVEVK
# B2: mouse CMV5 antibody (antibody, V domains shown)
# VH: EVQLQQSGPELVKPGASMKISCKASVYSFTGYTMNWVKQSHGQNLEWIGLINPYNGGTSYNQKFKGKATLTVDKSSNTAYMELLSLTSADSAVYYCTRRGFRDYSMDYWGQGTSVTVSS
# VL: DIVLTQSPATLSVTPGDSVSLSCRASQSISNNLHWYQQKSHESPRLLIKYASQSISGIPSRFSGSGSGTDFTLSVNGVETEDFGMYFCQQSNSWPHTFGGGTKLEIK
# B3: mouse anti-Tac antibody (antibody, V domains shown)
# VH: QVQLQQSGAELAKPGASVKMSCKASGYTFTSYRMHWVKQRPGQGLEWIGYINPSTGYTEYNQKFKDKATLTADKSSSTAYMQLSSLTFEDSAVYYCARGGGVFDYWGQGTTLTVSS
# VL: QIVLTQSPAIMSASPGEKVTITCSASSSISYMHWFQQKPGTSPKLWIYTTSNLASGVPARFSGSGSGTSYSLTISRMEAEDAATYYCHQRSTYPLTFGSGTKLELK
# Experiments:
# [1] = target: human IL-2 receptor (p55 Tac protein) on HUT-102 cells (human) (UniProt P01589); assay: competition with radioiodinated mouse anti-Tac on HUT-102 cells
# Chain of human IL-2 receptor (p55 Tac protein) on HUT-102 cells (human) (P01589 22-272): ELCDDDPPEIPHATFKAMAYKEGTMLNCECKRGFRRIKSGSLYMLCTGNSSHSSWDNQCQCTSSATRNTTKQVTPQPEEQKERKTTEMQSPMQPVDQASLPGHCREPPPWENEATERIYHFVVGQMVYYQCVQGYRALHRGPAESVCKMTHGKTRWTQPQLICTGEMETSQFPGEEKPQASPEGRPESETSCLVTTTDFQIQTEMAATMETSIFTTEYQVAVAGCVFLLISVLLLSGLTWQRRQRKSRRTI
# [2] = target: gH glycoprotein of cytomegalovirus on CMV-infected HEL cells (cytomegalovirus (CMV)) (UniProt P12824); assay: immunostaining of CMV-infected HEL cells, 2-fold dilutions, HRP secondary
# [3] = target: human IL-2 receptor (p55 Tac protein) on HUT-102 cells (human) (UniProt P01589); assay: cell-based or functional assay
binder,measurement,setting,value
B1,fold reduction of binding affinity compared to the PDL humanized anti-Tac antibody,[1],> 100 fold
B2,least amount of antibody that produced a detectable precipitate,[2],63 ng/mL
B3,"Percent 51Cr release after ADCC, effector:target ratio 30:1",[3],4%
same,"Percent 51Cr release after ADCC, effector:target ratio 100:1",[3],< 1%
